According to a protein production outcome set (Wang et al. 2014):

Experiment: label from the status in PepcDB records

Protein production, failed:
MSLSIVENGRKLESTIDFSRFAQEIKQNGWKIMLAGLIVAVVAYPLISMITPKYVSTATVLLKAQQDNVSPLPQVDGYDSTRSGYYETQYALMQSRIVLEQAVRDIKLDQNPAFNGDTDKNADHRGDEQQRVDHALDSIVKNLTITGVRTTHLATISYESASPELAADIANGAAQAFIDYTARQKHLKTLKAKALNQKQMEEVWQQVVEQQAAIDQFLKKEGLLTFRGVDGFETEQLGIVTTKLADATQRRIRAETNDNSVRSNAGTSLENIISLPDISNHAQIQDLRIALIQARRSLYDLRKRYGVKHTKILEAEAQVQAIEEQTHTVLLELKAGLNKQYQAALRDEKYYQQLLEQQKVDFQTLASKRDEYNNLTTALNKTKELYKALYQRTKEQTLAGNYLEPDAILYDPAVPADHPSKPNKAMLLVMVVMLTLIFSVVYFIVRAALDNSINSISQMKKRLNVAPVGEIRTFASGVERSKVVRLITKAPLDVDIVHSMRTHILLSHPSCQAIAISSAEHGEGRSLLAHLLARSFSADQKTLLIDLDFFNDGGLTQDLANPSAIGVAELLQGQSPLDAALVIISENLSFLPRGNAVMSSLLMLSSEHVVTLMAELRTRYQRIIVDVAAVNQTQDSQLISRVIDGVVFVLKAGEWRAGDVLNAIDKVKQHRAVLIGAVMNRVADKNLETKEGIRSLNHRMNALINSTGHL
MSLSVLDAPASQPCCPTGVTPEPSSRGPSARRVALLLAGALVAWIVAYAAAHPLSRWLTFGLLGLAEGSHLGESLAFFLYDVPKVLLLLTLIVFLVGIVRSFFTAERTRAILVGKRESVGNVVAALLGVVTPFCSCSAIPLFLGFVEVGVPLGVTFSFLVSAPMVNEVALVLLLGLFGWKVAALYLVTGLTIAILAGFVLGRMKLERHVEPWVYESMKGEARFEKEHLGFAGRVERGLQAVREVVGKVWPWVVAGIAVGAGIHGYVPEGLLASFMGKSAWWSVPAAVALGVPMYSNAAGIIPVVEALLGKGAALGTVLAFMMAVIGLSLPEIVILRKVLRPPLILAFVGVVASGILLVGWLFNAVL
MSLVENLSLEPQPKRRKIDPEVKESPSRNCSHWFVRNKVCASCNTIVDNYQGRSFDYLYTGIQMSNEALGFTKRLISQTSWLEDKKLHLVLDLDHTLVHTIKVSQLSESEKYITEEVESRKDLRRFNTGFPEESLIKLRSFVHQFLKECNEMFSLYVYTKGGYDYAQLVLEMIDPDKIYFGNRVITRRESPGFKTLDLVLADERGIVVVDDKSSVWPHDKKNLLQIARYKYFGDQSCLLSECKKKIDESDEKGPLNTALRFLMDVHEEFFCDWSRKDLDSVDVRPLLKEISLRWKRKADGVV

Protein production, not failed:
MSLSDRVKKIESFTLTLPRETPYLGKPRPGEEPNGRGYLVRKANRTVYPTFDRSVLVRIETENGAVGWGETYGLVAPRATMEIIDDLLADFTIGRDPFDAAAIHDDLYDLMRVRGYTGGFYVDALAAIDIALWDLAGKLAGLPVCKLLGGQRRDRIAAYISGLPEDTRAKRAELAAAWQAKGFSSFKFASPVADDGVAKEMEILRERLGPAVRIACDMHWAHTASEAVALIKAMEPHGLWFAEAPVRTEDIDGLARVAASVSTAIAVGEEWRTVHDMVPRVARRALAIVQPEMGHKGITQFMRIGAYAHVHHIKVIPHATIGAGIFLAASLQASAALANVDCHEFQHSIFEPNRRLLVGDMDCLNGEYVVPTGPGLGVEPSKEAQGLLKKHEGHHHHHH
MSLSELSPCHVRSGRIMTVDGPIPSSALGHTLMHEHLQNDCRCWWNPPQEPERQYLAEAPISIEILSELRQDPFVNKHNIALDDLDLAIAEVKQFAAVGGRSIVDPTCRGIGRDPVKLRRISAETGVQVVMGAGYYLASSMPETAARLSADDIADEIVAEALEGTDGTDARIGLIGEIGVSSDFTAEEEKSLRGAARAQVRTGLPLMVHLPGWFRLAHRVLDLVEEEGADLRHTVLCHMNPSHMDPVYQATLAQRGAFLEFDMIGMDFFYADQGVQCPSDDEVARAILGLADHGYLDRILLSHDVFVKMMLTRYGGNGYAFVTKHFLPRLRRHGLDDAALETLMVTNPRRVFDASIEGHHHHHH
MSLSGPRVERLEVSAYTVPTDYPESDGTLQWDSTTMILVEAHGGGRKGLGYTYGDVSVGRFVESKLAGVAEGSDALSPPAVWARMQAAIRNAGRPGVGAMAVSAVDIALWDLKARLLGLPLADALPRFHAEVPVYGSGGFTSYPLRRLQEQLGGWAAAGIPRVKMKVGREPEKDPERVRAAREAIGESVELMVDANGAYTRKQALYWAGAFAREAGISYLEEPVSSEDREGLRLLRDRGPGGVAIAAGEYEWTLPQLHDLAGCVDILQADVTRCGGITGLLRVDGICRGHQIPFSAHCAPAVSAHACCAVESLLHLEYFHDHARVERLLFDGTLDPEGGSLRPDPDRPGLGLELKRSEAGKYAAEGHHHHHH
MSLSGTLIGAAAGGTVGLVASIYRDSKRKIIRDLQKQDIQYVEYGDTRTLIIPTDKYFMFSSPRLNEICYPGLNNVIRLLNFYPQSTIYVAGFTDNVGSRSHKRKLSQAQAETMMTFLWANGIAAKRLKAEGYGDKNAISDNAIIHGSAQNRRIEIQWFTSEGHHHHHH
MSLSGVSHVSLTVRDLDISCRWYTEILDWKELVRGRGDTTSFAHGVLPGGLSIVLREHDGGGTDLFDETRPGLDHLSFSVESMTDLDVLEERLAKAGAAFTPTQELPFGWILAFRDADNIALEAMLGREGHHHHHH
MSLSRPLLFALTALSLTAASLAHAADKKAADKPAPSAVSKADKALHDKFLTLDTHLDTPAHFGRPGWDIADHHEVEHDFSQVDLPRMNQGGLDGGFFVVYIGQGELTEKGYTYARDYALHRTIEIREMLAANPDTFEMALTSDDARRIAKAGKKFAFVSMENSWPVGEDLSLVETFYKEGLRMAGPVHFRNNQLADSSTDPKGKIWNGYSPLGLRWLAEANRLGIVIDVSHASDDVVDQSVALSKAPIIASHSGPKAVYDHPRNLDDARLKKIADAGGAICINSIYLTDTTPSPERKAALEALGRAPDMKTATPEAVKAYADKRAAIDKAHPAARGDFDLYMKSMLHVLKVAGPKGVCVGADWDGGGGMDGFEDITDLPKITARLKAEGYSDADIEAIWSGNVLRIVDAAQAYAKSVTKEGHHHHHH
MSLSSEVVLMKPYEKLVERFNEMAAEFLSYFPTVKSVGNLESELDKRRFVILFRAMLRLRNEVKGYNEFDAEDLTIEEQRFADYQSKYLDMSNEFAITSEKEDAESILQDIDFELELVHRDIINVMYILALLQDLKPESSSYPKDRKAVLDTMDSNPELRSKIALIDNFIKLHIDGRQSNDLPADMESDLDKYIATQKAIAIEQVATEEGIDSTLLHEYISEYEYLGKPKNEGHHHHHH
MSLSVTIVMIEDDLGHARLIEKNIRRAGVNNEIIAFTDGTSALNYLFGDDKSGRVSAGRAQLVLLDLNLPDMTGIDILKLVKENPHTRRSPVVILTTTDDQREIQRCYDLGANVYITKPVNYENFANAIRQLGLFFSVMQVPETEGHHHHHH
MSLTAIHRPTWVSVDLDAAAHNLQEIREWTKAKKVYAVLKADGYGLGAIPLAKAFQETASADALIVSNLDEALELRQADLTLPIWVLGAWDYSDLKLFIDHDIVITIPSLAWLQNLPDFEGTLKVSLAIDTGMTRIGFDKADEISAAKKIIDKNPQLDLFSVYTHFATADEAGEKSKAYFEEQLRRWQELTINQGFDPSLFSMANSATCIWHHDDPRISFAAIRPGQLISGVNVSNGELKMPPNLHLERIFSVCSEIADVRFVKKDQSLSYGASERMPEDGYVATLPFGYNDGWLRRMQKSSVIINGKRMPIIGRITMDQTMVKLDRKYPIGTRVTLIGKDGGEQITVEEVANYSHTIVDEIQTTLAPRIKRIYTGDLAEVIGANYGEGHHHHHH
MSLTGTDFHVGIVGLGSMGMGAARSCLRAGLSTWGADLNPQACANLLAEGACGAAASAREFAGVVDALVILVVNAAQVRQVLFGEDGVAHLMKPGSAVMVSSTISSADAQEIAAALTALNLNMLDAPVSGGAVKAAQGEMTVMASGSEAAFTRLKPVLDAVASNVYRISDTPGAGSTVKIIHQLLAGVHIAAAAEAMALAARAGIPLDVMYDVVTHAAGNSWMFENRMQHVVDGDYTPRSAVDIFVKDLGLVADTAKALRFPLPLASTALNMFTSASNAGYGKEDDSAVIKIFSGEGHHHHHH
MSLTKYHDLKNKVIVIAGGIKNLGALTAKTFALESVNLVLHYHQAKDSDTANKLKDELEDQGAKVALYQSDLSNEEEVAKLFDFAEKEFGKVDIAINTVGKVLKKPIVETSEAEFDAMDTINNKVAYFFIKQAAKHMNPNGHIITIATSLLAAYTGFYSTYAGNKAPVEHYTRAASKELMKQQISVNAIAPGPMDTSFFYGQETKESTAFHKSQAMGNQLTKIEDIAPIIKFLTTDGWWINGQTIFANGGYTTREGHHHHHH
MSLTSSAELAEVDTLARSLLLYRSRLSEYAHANPGFSGSPADSALGLPAWFRKPVRLQGYIAAGTSYAFIASPPAGLAAAVDAGTESDLVGVRRNGQLVTRRLGAIAIALPAPIPEGAVVAVKEGHHHHHH
MSLTSTATDSPLKYYDIGLNLTDPMFHGIYNGKQYHPADYVKLLERAAQRHVKNALVTGSSIAESQSAIELVSSVKDLSPLKLYHTIGVHPCCVNEFADASQGDKASASIDNPSMDEAYNESLYAKVISNPSFAQGKLKELYDLMNQQAKPHDTSFRSIGEIGLDYDRFHYSSKEMQKVFFEEQLKISCLNDKLSSYPLFLHMRSACDDFVQILERFVVGFTDEKDTFQLQKLGASSSSGFYKFHPDRKLVVHSFTGSAIDLQKLLNLSPNIFIGVNGCSLRTEENLAVVKQIPTERLLLETDAPWCEIKRTHASFQYLAKYQEVRDFEYPAFKSVKKNKLADKLNAEELYMVKGRNEPCNMEQVAIVVSEVKDVDLATLIDTTWKTTCKIFGEGHHHHHH
MSLTTSKTRKSGVAMTEKLELDPARTAIVLIEYQNEFTSDGGVLHGAVADVMQHTGMLANTVAVVDAARQAGVPIMHAPITFAEGYGELTRHPYGILKGVVDGKAFVKGTWGAAIVDELAPVNGDIVIEGKRGLDTFASTNLDFILRSKGVDTIVLGGFLTNCCVESTMRTGYERGFRVITLTDCVAATSQEEHNNAISYDFPMFSVPMTSADVIAALEGHHHHHH
MSLVKIVRIETFPLFHRLEKPYGDANGFKRYRTCYLIRIITESGIDGWGECVDWLPALHVGFTKRIIPFLLGKQAGSRLSLVRTIQKWHQRAASAVSMALTEIAAKAADCSVCELWGGRYREEIPVYASFQSYSDSPQWISRSVSNVEAQLKKGFEQIKVKIGGTSFKEDVRHINALQHTAGSSITMILDANQSYDAAAAFKWERYFSEWTNIGWLEEPLPFDQPQDYAMLRSRLSVPVAGGENMKGPAQYVPLLSQRCLDIIQPDVMHVNGIDEFRDCLQLARYFGVRASAHAYDGSLSRLYALFAQACLPPWSKMKNDHIEPIEWDVMENPFTDLVSLQPSKGMVHIPKGKGIGTEINMEIVNRYKWDGSAYEGHHHHHH
MSLVNSLTHYEILRIPSDATQDEIKKAYRNRLLNTHPDKLSKSIHDTVSNVTINKIQDAYKILSNIKTRREYDRLILENYK
